From the domain aggregation screens of Martell et al. (2025)

assay: soluble fraction after stress (log2 fold change); higher = more stays soluble; pooled small domains, quantitative proteomics; conditions: stress: 75 degC
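Also: 20 min heating vs room temperature control held 20 min.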

Sequence | soluble fraction (log2)
HMLAGKTYEVQTESGGKWTLVASYNVKSQAIQQAQALLESHKYSGVKVIAESDRKGEEVIFNEQSEVT | -0.0725
HMLALKSGQVVVGTIIRRLDNTTAMLRIGNQLFETSFAKGLPKSNHILLRYDAMQGNRFIFTMVE | -0.635
HMLANLNKELQNDAALLKQKAQGNSNLLAKIQDVEQQMKQVNTSSASDEAKAKELQTLQRKLTAYKKALA | -0.0577
HMLAVSVDKDGKVYIQDSETAVDAVTAKLRAISGNNSEIRIFVRGDADVNYGRIMEIMGVINAAGFRKVAL | -0.111
HMLDEIAGQKVRVLEEINNSEGTGKVMYRGVEWMARSVDDAVMAKDSIVTVQSISGVKLMVT | -0.184
HMLDEKAVRQYLLNTLENSEIKMDRQAIDLFLRLTDLDLSKMMRELQKILLYGQEQEVITVKEIEQ | -0.779
HMLDGFEVGMTVMKKSGTEIGFTGWPSFADKDELPIIERIDTSDSTLLLKFKDMSWWIKASLVEPS | -3.55
HMLDLPEISARIMEVFETKDRATISELSKLTGTNINTIKKHLSSLVENNYLIKHGKTRGAWYTKST | -0.126
HMLDLVSIGKRIKAERQKNGLTQEALAERIEVSAHYVYELERGLKAMSVPILLRMSEVLHTSTDYLLF | -3.34
HMLDNHPQSKKIRALWLEMAAAGVVRDSSEQALALWVKRETGISALRWLSNEQASSVIEKLKKWQRRAAG | -1.47
HMLDPKVFVGKAGINEGIAKLLLQAFDKADLVKVRFTAERDVMETQMQELARLTGSEVIGNVGRTATF | -0.0412
HMLEAMDSDEAAKVIEQIVNERADFVRSKGMGAIGPLMGPVMGALRGKVDGKQANELLTAAIKKLL | 0.334
HMLEASVYTAEKSGDRLDAFLAEQAGITRSYAQKLIEGGQVTLGGVVPKKNYKLSAGEQVELILPEN | 0.0466
HMLEKVLDNHIHKLRLQHKISQQELADAIGVSRKTISTVETGRFTPSVVIALKIAAHFSVSVEQVFTL | -1.14
HMLEPEVLDLIGQVKSVHHFSVTQSHQLEKLVRHAHTLGFEIAELKSLLASSPNAKSLLSSLDQKLEPLRM | -1.86
HMLEQEQFESKLLKAINNINETQRIAFLMHRIDGKKYAEIASELNISVKAVEKRIHLALIELKKEIENF | -0.747
HMLEQISDINILSGYAKEVIAENPKTVSDYLSGKAAAFQALVGQVMKKTGGRGNPVIIQEILKRLIHKK | -0.0597
HMLERKPVLVASRDLPALAVIGKDDLSVELLRTAPVGSYDRPEALLGKRVWVAVPAGSILSAATLEP | -0.366
HMLERPLKLKSHYVSTIYEKVAVQYSEGEEKKSVMGTLIEVNQDTIVLDDRGTIIEIPFKSITRAKTVF | -3.6
HMLETLVYPNPTTDKILLSSPVDYHLFSLKGELVLEGRGSSIEVSQLSKGVYFLNTKTQTFKIIK | -0.62
HMLGARSLNEAVARNLPQILAKYQLIHIAGKNGFNPELQGRGYVQYEYVDTELKDLMALADIVVSR | -1.52
HMLGERIKQIRKQKKMTQTDVATGIITKSMLSMIENGKATPSLPALQAIARRLQVTVEELML | -2.55
HMLGFELVGIRGNNPESTIIILERDDYRLVEQGQNINSSVIFSHIDGSRAYFFDGQTYTFLDI | -2.78
HMLGITEGSLVRVIRSPNFGKIGTVAELPAELRMMESETMVRIAIVEIEGTNFEIPRSNLEVLET | -1.6
HMLGKEVVRAYNISYAIDDKGSLQGDLTAALTGLIPLSKPPVLDQRNRSLYVTATPEQHKDVAALLAKL | -0.238
HMLGSGSKEQQLVILNNILERQVQAFNLQGGQEYPMVTLKNFYNTLSKMIENAGLKNVENYFVNPDVGKQM | -0.392
HMLHMKAALGELMSIPGMRSELAGTLFDRGYTSLAQLRAATLDDLERVNGLERADARRIHDFLRKS | -0.251
HMLHQSLVVNAASGRVTVSLDIVPDEDNPYAVLRATDDSDEPLAQVRVAPSFKLNRASALAWIESQFARP | -2.34

Sequence | soluble fraction (log2)
HMLHSEDATVVRQAIPLLERHVDAATVAVARRNLAQLEQFGRYPRRNQALGRISNPAENAYLRAER | 0.0695
HMLIDQYPYSIIYRLIPHGRSNAVPAAQIVGLTKLDERSIRIYVEAMRREGHIIASSSKGYYFPASIEE | -3.2
HMLIGLNETESLVLDALIANPMRIDQVSAMLKKDVATTLKFLGGLSVRGLVETLFGGRFAPTKIALHARS | 0.0549
HMLIIMNSDATKEQVDHVTSRVREAGFKDHIMPGAGKVAIGVTGTGDYDQTKLHLEILPGVFKIMRITK | -0.816
HMLIPADETEAKVLSVLSREPLHVDEIRNQAGLPIEKISATLALMELKGMVRQVGGMNYVSV | -0.044
HMLKDKLSDKDFDFYKNKIQIQLQGNPTELKELVRRFSSTEEQQILKTIDYMLDNGFLRIDEDNMIYWK | -0.0419
HMLKDQSIAQLEKNLDDLKGLMRKMFGSSDVPKITKMISDIESSLANFNQSKANKLIVQTTNYISSKL | -0.664
HMLKEDSAYELGLRIFDQALNDYGTSFIDLKEDEYKKVLSIYGYSNPRQLIINIGLGNVIPHLLARDITE | -1.34
HMLKEGIKEKINQLQVYADKNDNIIWYDRVVDILSDKDDSVTDEMIEAAIRTLEEAGISVERKQ | 0.0727
HMLKEGQYSPNHFHWHKMEDIINRGGGTLLIRVYNSLPDEEIDRESDVTVHMDGVTRTVPAGTQLRLE | -0.124
HMLKETGVITASVLNVREDIGTSSNIVAQLKKGMEVNILESRAIAGSETWYRIDAGSIKGWIFGDYI | -3.37
HMLKFGLSQRELQILALLPTDEPLSILAKSLFISESTLKTHLTHIYRKLGVKNRLQAINVARKAGLLK | -1.59
HMLKHSKQRDAIEQFLATRYDHPTAETVYMNLREEYPKLSLATVYRNLSLLAELGNIQKIPTGNGPDRFDG | -0.343
HMLKIAENIYQRRKEKNITQEELADFMMVTKASVSKWETGQSYPDILLLPKLATFFNVTVDELIGYEPQ | -2.72
HMLKIVRSREEVESRLYTIYGNVKGRRLYNFYLSLIIDGLDIVKARTSKNVYYTNIRNLKNAGIDFSQKIN | -2.28
HMLKPKDLHLGDSVRVLSLNLKGTVSSLPDTKGFLFVQMGIMRSKLHISDLQLIDEPVITAP | -2.23
HMLLFSVADIVKRSKRILSFKTDAELAAYFGVSRSTLSNWIARNSIDFPLLLSKMKDVDYTWLILGKGTPG | -3.97
HMLLLHINQMGVTEFSQLELNHVRSWLANLQIKGAARSSITRRVVSVRAFTYWGAKNGWLASDIGRDLVAP | -0.459
HMLLRVGGLVKDGSVRTDNDLGIKFIIEDNLAEVSVLYNGILPDLFREGQGVIAEGKFIDNIFIANEIVA | -0.682
HMLLSHTAQREGELLTFLRGELALSSGLVKRLKWQNAFFLDGAPVHTNARVKPGQEITVRIEE | -1.59
HMLLTEETLPQLKQIVDEFPYFQIARMLYLKNLAVLNDIRFSVELKKMSIYVPDRRKLFTLIEGE | 0.044
HMLLTLPEDIITMVRQGTLSAGHARVLAGLESDEMKMTLARQTITNEWSVRQLENAVALMRKS | -0.906
HMLLTPLEETRLVIEEIVIPQKLTIDLLPRSSAIRKLQHELITHYQLRGTSVGNEPNRRLRIYP | -0.121
HMLMNADVLVKYQEDHWIVISEKASQASDTFDKKEQAVERAKEIAKNKNSSVKVYKQDGTLQDTFDYS | 0.351
HMLMSDEENAEFTKLYRQLVFKLHPDLNPNQTKDEENLWHKVQMAYKGGDLEEMRSLAIILDAQ | 0.0885
HMLMTGSLQTKHGKYYVVVRIPDGLGNTKAKWINTGIPTDGNNKRKAQQRRIEILTELEENKD | -2.47
HMLMYAQDEKEEASNNIPYRLLHMSFTKEQKAELQRAMDVRVPKDIILSYFYPDTPVARMMEIRRQYESA | -0.814
